Measurements as given in patent US20170145090A1.

Molecular target: Human OSM (in-house, OSMN1-1) (human) (UniProt P13725)
Test: cell-based or functional assay

Sequence of Human OSM (in-house, OSMN1-1) (human) (P13725 26-221 limits assumed): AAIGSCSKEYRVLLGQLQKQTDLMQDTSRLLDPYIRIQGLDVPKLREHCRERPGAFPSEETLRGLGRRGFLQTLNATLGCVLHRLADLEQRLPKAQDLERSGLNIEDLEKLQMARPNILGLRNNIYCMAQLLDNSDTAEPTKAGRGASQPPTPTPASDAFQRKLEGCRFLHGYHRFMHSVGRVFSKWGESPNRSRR

pSTAT3 inhibition EC50 (ng/ml), A375 cells, 5 ng/ml hOSM: 72.1 ng/ml
Substance: MAB295 (R&D Systems) (antibody)
